In IntAct's records for PubMed 14507921:

B1: Anthrax toxin receptor 1 (Homo sapiens), Q9H6X2-2 (parent)
chain: MATAERRALGIGFQWLSLATLVLICAGQGGRREDGGPACYGGFDLYFILDKSGSVLHHWNEIYYFVEQLAHKFISPQLRMSFIVFSTRGTTLMKLTEDREQIRQGLEELQKVLPGGDTYMHEGFERASEQIYYENRQGYRTASVIIALTDGELHEDLFFYSEREANRSRDLGAIVYCVGVKDFNETQLARIADSKDHVFPVNDGFQALQGIIHSILKKSCIEILAAEPSTICAGESFQVVVRGNGFRHARNVDRVLCSFKINDSVTLNEKPFSVEDTYLLCPAPILKEVGMKAALQVSMNDGLSFISSSVIITTTHCSDGSILAIALLILFLLLALALLWWFWPLCCTVIIKEVPPPPAEESEENKIK

Variants of: B1
Conditions: with pag_bacan pagA

| Variant | effect of a mutation on the interaction |
| --- | --- |
| T118A | decreasing interaction |
| D50A | decreasing interaction |
